Assay results taken from the supplement of paper PMC9112550, “Optimization of the antimicrobial peptide Bac7 by deep mutational scanning” (BMC Biology, 2022).

What follows are sequences tested on Escherichia coli TOP10 (assay: shrunken log2 fold change of peptide-encoding DNA abundance (4.5 h post-induction vs induction); higher = less antimicrobial activity (less host growth inhibition)). Conditions: time post-induction: 4.5 h; library: site-saturation at positions 5, 18, 19, 20.
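Note: peptides expressed intracellularly from a pBAD plasmid library in pooled LB shake-flask culture, induced with 0.3% L-arabinose, DNA abundance read by NGS, three biological replicates, DESeq2 with apeglm shrinkage.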

Sequence	shrunken log2 fold change
RRIRARPPRLPRPRPRPKPDPRP	0.582
RRIRARPPRLPRPRPRPKPNPRP	0.736
RRIRARPPRLPRPRPRPKQLPRP	0.155
RRIRARPPRLPRPRPRPKRHPRP	0.511
RRIRARPPRLPRPRPRPKSFPRP	0.0951
RRIRARPPRLPRPRPRPKSNPRP	0.253
RRIRARPPRLPRPRPRPKSPPRP	0.425
RRIRARPPRLPRPRPRPKVHPRP	0.491
RRIRARPPRLPRPRPRPKVTPRP	0.0237
RRIRARPPRLPRPRPRPKWFPRP	0.053
RRIRARPPRLPRPRPRPLARPRP	0.81
RRIRARPPRLPRPRPRPLCEPRP	0.879
RRIRARPPRLPRPRPRPLDYPRP	-0.25
RRIRARPPRLPRPRPRPLFAPRP	0.647
RRIRARPPRLPRPRPRPLFEPRP	0.629
RRIRARPPRLPRPRPRPLHAPRP	0.554
RRIRARPPRLPRPRPRPLHGPRP	0.155
RRIRARPPRLPRPRPRPLHKPRP	0.408
RRIRARPPRLPRPRPRPLHTPRP	0.0174
RRIRARPPRLPRPRPRPLKNPRP	-0.127
RRIRARPPRLPRPRPRPLKRPRP	0.37
RRIRARPPRLPRPRPRPLLWPRP	1.94
RRIRARPPRLPRPRPRPLNAPRP	0.486
RRIRARPPRLPRPRPRPLNEPRP	0.137
RRIRARPPRLPRPRPRPLNHPRP	-0.265

Sequence	shrunken log2 fold change
RRIRARPPRLPRPRPRPLQFPRP	0.0375
RRIRARPPRLPRPRPRPLRYPRP	-0.00438
RRIRARPPRLPRPRPRPLSWPRP	0.984
RRIRARPPRLPRPRPRPLVQPRP	0.561
RRIRARPPRLPRPRPRPLVWPRP	0.774
RRIRARPPRLPRPRPRPLWNPRP	0.0673
RRIRARPPRLPRPRPRPLWRPRP	0.24
RRIRARPPRLPRPRPRPMAIPRP	-0.0621
RRIRARPPRLPRPRPRPMAPPRP	0.0991
RRIRARPPRLPRPRPRPMCDPRP	0.526
RRIRARPPRLPRPRPRPMCMPRP	0.272
RRIRARPPRLPRPRPRPMCRPRP	0.0586
RRIRARPPRLPRPRPRPMCYPRP	-0.112
RRIRARPPRLPRPRPRPMEEPRP	-0.0115
RRIRARPPRLPRPRPRPMEIPRP	0.146
RRIRARPPRLPRPRPRPMETPRP	-0.0508
RRIRARPPRLPRPRPRPMFCPRP	0.211
RRIRARPPRLPRPRPRPMFSPRP	-0.142
RRIRARPPRLPRPRPRPMFVPRP	-0.134
RRIRARPPRLPRPRPRPMGAPRP	0.572
RRIRARPPRLPRPRPRPMGEPRP	0.1
RRIRARPPRLPRPRPRPMGKPRP	0.472
RRIRARPPRLPRPRPRPMHNPRP	-0.00444
RRIRARPPRLPRPRPRPMILPRP	0.0109
RRIRARPPRLPRPRPRPMIVPRP	-0.262

Sequence	shrunken log2 fold change
RRIRARPPRLPRPRPRPMKGPRP	-0.132
RRIRARPPRLPRPRPRPMKNPRP	0.0488
RRIRARPPRLPRPRPRPMKPPRP	0.101
RRIRARPPRLPRPRPRPMMEPRP	0.0919
RRIRARPPRLPRPRPRPMQFPRP	0.091
RRIRARPPRLPRPRPRPMRFPRP	0.869
RRIRARPPRLPRPRPRPMRTPRP	0.802
RRIRARPPRLPRPRPRPMSLPRP	-0.229
RRIRARPPRLPRPRPRPMTKPRP	0.248
RRIRARPPRLPRPRPRPMVPPRP	0.0221
RRIRARPPRLPRPRPRPMWGPRP	0.115
RRIRARPPRLPRPRPRPMWLPRP	0.0028
RRIRARPPRLPRPRPRPMYLPRP	-0.506
RRIRARPPRLPRPRPRPMYRPRP	-0.0452
RRIRARPPRLPRPRPRPNALPRP	0.296
RRIRARPPRLPRPRPRPNCRPRP	0.0806
RRIRARPPRLPRPRPRPNDKPRP	-0.129
RRIRARPPRLPRPRPRPNDTPRP	-0.283
RRIRARPPRLPRPRPRPNFIPRP	-0.521
RRIRARPPRLPRPRPRPNHGPRP	-0.0204
RRIRARPPRLPRPRPRPNHQPRP	0.243
RRIRARPPRLPRPRPRPNHVPRP	-0.31
RRIRARPPRLPRPRPRPNLAPRP	-0.179
RRIRARPPRLPRPRPRPNLPPRP	0.158
RRIRARPPRLPRPRPRPNMAPRP	0.114

Sequence	shrunken log2 fold change
RRIRARPPRLPRPRPRPNMGPRP	0.137
RRIRARPPRLPRPRPRPNPKPRP	0.372
RRIRARPPRLPRPRPRPNQDPRP	0.116
RRIRARPPRLPRPRPRPNQTPRP	0.064
RRIRARPPRLPRPRPRPNRHPRP	0.0991
RRIRARPPRLPRPRPRPPAPPRP	1.19
RRIRARPPRLPRPRPRPPCCPRP	0.571
RRIRARPPRLPRPRPRPPDIPRP	0.289
RRIRARPPRLPRPRPRPPDTPRP	0.764
RRIRARPPRLPRPRPRPPDVPRP	0.655
RRIRARPPRLPRPRPRPPFFPRP	0.603
RRIRARPPRLPRPRPRPPFKPRP	0.368
RRIRARPPRLPRPRPRPPGTPRP	0.898
RRIRARPPRLPRPRPRPPHSPRP	0.902
RRIRARPPRLPRPRPRPPKRPRP	0.485
RRIRARPPRLPRPRPRPPNFPRP	-0.0624
RRIRARPPRLPRPRPRPPPQPRP	1.31
RRIRARPPRLPRPRPRPPQIPRP	0.599
RRIRARPPRLPRPRPRPPQVPRP	0.162
RRIRARPPRLPRPRPRPPRSPRP	1.12
RRIRARPPRLPRPRPRPPSIPRP	-0.108
RRIRARPPRLPRPRPRPPTRPRP	1.29
RRIRARPPRLPRPRPRPPVIPRP	0.0687
RRIRARPPRLPRPRPRPPVSPRP	0.554
RRIRARPPRLPRPRPRPQALPRP	0.274

Sequence	shrunken log2 fold change
RRIRARPPRLPRPRPRPQAVPRP	0.0772
RRIRARPPRLPRPRPRPQCAPRP	0.216
RRIRARPPRLPRPRPRPQDPPRP	0.557
RRIRARPPRLPRPRPRPQGEPRP	0.294
RRIRARPPRLPRPRPRPQHFPRP	3.55
RRIRARPPRLPRPRPRPQLIPRP	0.184
RRIRARPPRLPRPRPRPQLLPRP	0.527
RRIRARPPRLPRPRPRPQMEPRP	-0.154
RRIRARPPRLPRPRPRPQMPPRP	0.465
RRIRARPPRLPRPRPRPQNMPRP	-0.497
RRIRARPPRLPRPRPRPQPPPRP	0.715
RRIRARPPRLPRPRPRPQPSPRP	0.555
RRIRARPPRLPRPRPRPQQGPRP	-0.0917
RRIRARPPRLPRPRPRPQQWPRP	0.2
RRIRARPPRLPRPRPRPQRDPRP	0.225
RRIRARPPRLPRPRPRPQRWPRP	0.172
RRIRARPPRLPRPRPRPQSCPRP	-0.0161
RRIRARPPRLPRPRPRPQSEPRP	0.152
RRIRARPPRLPRPRPRPQTVPRP	0.129
RRIRARPPRLPRPRPRPQWCPRP	-0.0868
RRIRARPPRLPRPRPRPQWHPRP	-0.0862
RRIRARPPRLPRPRPRPQYAPRP	0.0596
RRIRARPPRLPRPRPRPQYGPRP	-0.442
RRIRARPPRLPRPRPRPQYWPRP	-0.167
RRIRARPPRLPRPRPRPRAVPRP	1.11

Sequence	shrunken log2 fold change
RRIRARPPRLPRPRPRPRDAPRP	0.91
RRIRARPPRLPRPRPRPREDPRP	0.879
RRIRARPPRLPRPRPRPREWPRP	-0.0253
RRIRARPPRLPRPRPRPRFDPRP	0.236
RRIRARPPRLPRPRPRPRGMPRP	0.32
RRIRARPPRLPRPRPRPRHGPRP	0.343
RRIRARPPRLPRPRPRPRIMPRP	0.121
RRIRARPPRLPRPRPRPRKEPRP	-0.0116
RRIRARPPRLPRPRPRPRKLPRP	0.424
RRIRARPPRLPRPRPRPRKNPRP	0.472
RRIRARPPRLPRPRPRPRLYPRP	0.501
RRIRARPPRLPRPRPRPRNCPRP	0.849
RRIRARPPRLPRPRPRPRPHPRP	0.513
RRIRARPPRLPRPRPRPRQSPRP	0.233
RRIRARPPRLPRPRPRPRQVPRP	0.2
RRIRARPPRLPRPRPRPRREPRP	0.631
RRIRARPPRLPRPRPRPRRFPRP	0.603
RRIRARPPRLPRPRPRPRRGPRP	0.759
RRIRARPPRLPRPRPRPRRLPRP	0.537
RRIRARPPRLPRPRPRPRTVPRP	0.457
RRIRARPPRLPRPRPRPRVHPRP	0.555
RRIRARPPRLPRPRPRPRWPPRP	0.666
RRIRARPPRLPRPRPRPRYGPRP	-0.0744
RRIRARPPRLPRPRPRPSANPRP	0.344
RRIRARPPRLPRPRPRPSCEPRP	0.128
